Reference: patent US20120077731A1 (Ablynx, published 2012)

Tests used:
Human plasma sIL-6R = target: T1, Human plasma sIL-6R (human, UniProt P08887 20-355, limits assumed); experiment: plasma potency ELISA, human plasma
T1 construct: also called plasma-derived human IL-6R
T1 sequence (looked up): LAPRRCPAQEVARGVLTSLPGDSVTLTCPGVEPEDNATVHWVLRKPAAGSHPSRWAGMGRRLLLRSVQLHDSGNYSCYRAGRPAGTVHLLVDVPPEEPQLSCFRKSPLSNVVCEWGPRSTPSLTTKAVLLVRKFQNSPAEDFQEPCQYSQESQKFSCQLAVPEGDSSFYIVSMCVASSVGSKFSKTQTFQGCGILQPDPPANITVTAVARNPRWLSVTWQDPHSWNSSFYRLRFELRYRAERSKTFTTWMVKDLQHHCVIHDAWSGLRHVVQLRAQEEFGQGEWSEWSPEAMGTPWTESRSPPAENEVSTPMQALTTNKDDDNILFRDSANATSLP

[1] = target: T2, Human membrane IL-6R on cells (human, UniProt P08887 20-468); experiment: flow cytometry, human PBL, lymphocytes donor 2
T2 construct: whole, on cells; also called cell-surface expressed human IL-6R
T2 sequence (looked up): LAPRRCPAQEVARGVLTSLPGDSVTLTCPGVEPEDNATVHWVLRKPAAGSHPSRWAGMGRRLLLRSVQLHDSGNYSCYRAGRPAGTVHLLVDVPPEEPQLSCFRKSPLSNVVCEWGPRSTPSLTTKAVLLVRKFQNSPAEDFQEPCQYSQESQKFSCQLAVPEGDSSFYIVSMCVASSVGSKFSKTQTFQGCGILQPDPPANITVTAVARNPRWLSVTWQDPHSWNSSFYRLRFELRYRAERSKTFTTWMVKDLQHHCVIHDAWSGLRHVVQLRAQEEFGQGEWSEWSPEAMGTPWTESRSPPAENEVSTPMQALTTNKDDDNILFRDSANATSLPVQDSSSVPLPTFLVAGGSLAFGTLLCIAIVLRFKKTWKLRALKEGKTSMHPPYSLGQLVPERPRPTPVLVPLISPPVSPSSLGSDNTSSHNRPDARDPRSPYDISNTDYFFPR

CLF-1/CLC = target: T3, CLF-1/CLC (UniProt O75462 38-422; Q9UBD9 28-225, limits assumed); experiment: competitive binding ELISA, similar setup (results not shown)
T3 sequence (looked up) 1: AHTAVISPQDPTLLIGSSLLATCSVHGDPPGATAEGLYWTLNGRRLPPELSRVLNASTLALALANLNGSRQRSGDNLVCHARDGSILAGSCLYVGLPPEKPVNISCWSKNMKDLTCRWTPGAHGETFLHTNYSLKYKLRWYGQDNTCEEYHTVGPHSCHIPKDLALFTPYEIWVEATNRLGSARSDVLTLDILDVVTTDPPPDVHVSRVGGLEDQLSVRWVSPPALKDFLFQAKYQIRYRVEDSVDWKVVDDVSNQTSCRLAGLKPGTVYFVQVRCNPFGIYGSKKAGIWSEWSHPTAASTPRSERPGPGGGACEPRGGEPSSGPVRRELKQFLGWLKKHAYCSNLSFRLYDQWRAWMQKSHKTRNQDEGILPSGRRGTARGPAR
T3 sequence (looked up) 2: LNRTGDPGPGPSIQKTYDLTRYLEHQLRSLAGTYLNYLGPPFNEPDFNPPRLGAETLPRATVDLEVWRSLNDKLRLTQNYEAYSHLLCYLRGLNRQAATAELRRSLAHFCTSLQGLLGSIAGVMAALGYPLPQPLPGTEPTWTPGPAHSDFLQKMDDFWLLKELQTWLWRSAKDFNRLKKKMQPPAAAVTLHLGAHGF

gp130/Fc = target: T4, gp130/Fc (UniProt P40189 23-619); experiment: as above
T4 construct: not shown: Fc part, not described
T4 sequence (looked up): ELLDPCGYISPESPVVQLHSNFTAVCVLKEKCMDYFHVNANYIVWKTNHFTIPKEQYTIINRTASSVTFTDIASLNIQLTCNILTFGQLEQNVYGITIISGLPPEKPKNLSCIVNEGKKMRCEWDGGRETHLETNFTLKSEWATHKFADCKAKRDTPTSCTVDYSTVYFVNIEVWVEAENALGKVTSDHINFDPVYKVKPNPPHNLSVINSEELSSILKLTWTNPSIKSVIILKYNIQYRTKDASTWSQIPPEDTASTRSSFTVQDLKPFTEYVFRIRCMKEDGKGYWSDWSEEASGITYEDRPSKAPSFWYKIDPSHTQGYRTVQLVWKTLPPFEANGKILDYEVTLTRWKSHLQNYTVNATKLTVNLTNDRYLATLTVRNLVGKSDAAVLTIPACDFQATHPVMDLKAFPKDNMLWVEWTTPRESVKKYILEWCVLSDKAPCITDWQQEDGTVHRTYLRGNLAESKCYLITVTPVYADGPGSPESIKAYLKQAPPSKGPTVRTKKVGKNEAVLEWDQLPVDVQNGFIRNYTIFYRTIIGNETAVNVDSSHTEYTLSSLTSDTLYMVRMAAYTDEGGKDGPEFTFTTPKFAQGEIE

LIF-R = target: T5, LIF-R (UniProt P42702 45-833, limits assumed); experiment: competitive binding ELISA: IL6R20A11 (0.05 nM) pre-incubated with a series of the receptor; free IL6R20A11 captured on sIL-6R and detected via anti-His
T5 sequence (looked up): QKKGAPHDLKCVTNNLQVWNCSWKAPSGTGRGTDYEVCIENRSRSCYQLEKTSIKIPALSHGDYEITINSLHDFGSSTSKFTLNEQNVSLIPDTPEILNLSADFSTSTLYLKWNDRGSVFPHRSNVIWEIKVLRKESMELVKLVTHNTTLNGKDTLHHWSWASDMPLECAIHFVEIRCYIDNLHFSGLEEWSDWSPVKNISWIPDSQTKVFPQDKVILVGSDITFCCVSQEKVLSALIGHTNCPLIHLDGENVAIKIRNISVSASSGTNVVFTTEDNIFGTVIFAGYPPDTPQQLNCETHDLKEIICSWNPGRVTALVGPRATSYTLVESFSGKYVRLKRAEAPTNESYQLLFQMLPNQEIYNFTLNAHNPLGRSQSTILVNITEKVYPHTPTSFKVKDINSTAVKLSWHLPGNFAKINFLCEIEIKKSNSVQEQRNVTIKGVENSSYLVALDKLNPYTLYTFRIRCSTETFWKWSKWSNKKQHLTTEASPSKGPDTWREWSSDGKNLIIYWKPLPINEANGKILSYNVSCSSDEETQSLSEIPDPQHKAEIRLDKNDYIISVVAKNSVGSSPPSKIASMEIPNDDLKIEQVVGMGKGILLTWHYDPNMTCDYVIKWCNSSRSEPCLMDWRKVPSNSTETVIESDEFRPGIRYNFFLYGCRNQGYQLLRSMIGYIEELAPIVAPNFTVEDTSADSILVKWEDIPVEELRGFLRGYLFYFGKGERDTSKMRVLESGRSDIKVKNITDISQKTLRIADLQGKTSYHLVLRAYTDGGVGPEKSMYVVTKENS

B1: PMP20A11 (VHH)
VHH: EVQLVESGGGLVQPGGSLRLSCAASGSVFKINVMAWYRQAPGKGRELVAGIISGGSTSYADSVKGRFTISRDNAKNTLYLQMNSLRPEDTAVYYCAFITTESDYDLGRRYWGQGTLVTVSS
notes: also called IL6R20A11; IL6R300; not shown: c-myc and (His)6 tags
With B1 the IC50 (Human plasma sIL-6R) was 0.198 nM, the EC50 [1] was 2.92 nM and the binding result (CLF-1/CLC) was “no binding (tested: 100 nM)”. B1: no binding (tested: 100 nM) (gp130/Fc); no binding (tested: 5 nM (log conc 0.7)) (LIF-R).
